In patent US20230002494A1 (SANYOU BIOPHARMACEUTICALS, published 2023):

Tests used:
[1] = target: T1, mouse PD-L1 (full-length, on CHO-s cells) (mouse, UniProt Q9EP73 19-290); experiment: FACS, mouse PD-L1-CHO cells
T1 construct: whole, on cells; also called mouse PD-L1-CHO

[2] = target: T2, human PD-L1 (full-length, on cells) (human, UniProt Q9NZQ7 19-290); experiment: FACS, human PD-L1-CHO cells
T2 construct: whole, on cells; Expressed on CHO-s cells; also called human PD-L1-CHO; PD-L1-CHO

[3] = target: T3, rhesus monkey PD-L1 (full-length, on CHO-s cells) (rhesus monkey, UniProt F6VEW6 19-290); experiment: FACS, monkey PD-L1-CHO cells
T3 construct: whole, on cells; also called monkey PD-L1-CHO
Description: In order to evaluate the cross-reactivity of the VHH-Fc candidate antibodies to monkey PD-L1 and mouse PD-L1, an FACS method is used to detect the binding activity thereof to the mouse and rhesus monkey PD-L1 protein on cells.

[4] = target: T2, human PD-L1 (full-length, on cells); experiment: FACS on human PD-L1-CHO cells, PE anti-human IgG Fc
Description: 1) collecting the cultured human PD-L1-CHO cells, centrifuging the collected cells at 300 g to remove the supernatant, resuspending the cells in a formulated FACS buffer and counting the cells, and adjusting the density of the cell suspension to 2×10⁶ cells/mL;

[5] = target: T4, B7-H2 protein, Sino Biological 11559-H08H (UniProt O75144 19-258); experiment: ELISA, plate coated with 2 µg/mL protein, anti-human IgG Fc-HRP, OD450; parameters: concentration or dose not given beside the values
T4 construct: Bought protein
T4 sequence (looked up): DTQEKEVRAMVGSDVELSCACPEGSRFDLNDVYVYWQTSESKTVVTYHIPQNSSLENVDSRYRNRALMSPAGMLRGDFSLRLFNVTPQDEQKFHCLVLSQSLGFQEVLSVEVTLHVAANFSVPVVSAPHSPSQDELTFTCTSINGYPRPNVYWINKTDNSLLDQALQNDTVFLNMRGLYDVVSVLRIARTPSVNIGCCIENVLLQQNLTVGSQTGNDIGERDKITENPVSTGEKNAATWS
Description: (§1) The specific method is as follows:
(§2) one day prior to the experiment, 30 μL of protein diluents such as B7-H1 (i.e., PDL1), B7-H2, B7-H3, B7-H4 and B7-DC (the above-mentioned proteins are all purchased from Sino Biological Co., Ltd., with Cat. Nos. 10084-HNAH, 11559-H08H, 11188-H08H, 10738-H08H and 10292-H08H-B, respectively) are added to an ELISA plate at a final concentration of 2 μg/mL, and incubated at 4° C. overnight; the next day, the ELISA plate is rinsed 3 times with PBST, then blocked with 150 μL of 5% PBSM, and incubated at room temperature for 2 hours; the ELISA plate is rinsed 3 times with PBST again, and then 30 μL of candidate antibody and control antibody diluents are added thereto, and the plate is incubated at room temperature for 1 hour; the plate is rinsed 3 times with PBST, and an anti-human IgG Fc-HRP second antibody diluted at 1:7000 is added thereto (30 μL/well), and the plate is incubated at room temperature for 30 minutes; the plate is rinsed 6 times with PBST, then TMB is added thereto for color development, and finally, 2M HCl is added to stop the reaction.

[6] = target: T5, B7-H3 protein, Sino Biological 11188-H08H (UniProt Q5ZPR3 29-461); experiment: as above; parameters: concentration or dose not given beside the values
T5 construct: Bought protein
T5 sequence (looked up): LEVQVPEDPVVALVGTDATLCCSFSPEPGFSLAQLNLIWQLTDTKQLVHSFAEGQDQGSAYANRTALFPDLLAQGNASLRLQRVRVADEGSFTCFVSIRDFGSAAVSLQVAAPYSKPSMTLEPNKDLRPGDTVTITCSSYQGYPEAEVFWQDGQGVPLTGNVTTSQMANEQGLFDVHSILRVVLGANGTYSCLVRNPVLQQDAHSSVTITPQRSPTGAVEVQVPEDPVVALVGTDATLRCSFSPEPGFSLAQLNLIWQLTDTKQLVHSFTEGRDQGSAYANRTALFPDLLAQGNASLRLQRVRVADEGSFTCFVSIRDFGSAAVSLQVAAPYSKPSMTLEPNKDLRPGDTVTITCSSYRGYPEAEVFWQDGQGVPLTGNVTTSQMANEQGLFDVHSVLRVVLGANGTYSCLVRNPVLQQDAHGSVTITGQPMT
Description: as §1, §2

[7] = target: T6, B7-H4 protein, Sino Biological 10738-H08H (UniProt Q7Z7D3 25-258); experiment: as above; parameters: concentration or dose not given beside the values
T6 construct: Bought protein
T6 sequence (looked up): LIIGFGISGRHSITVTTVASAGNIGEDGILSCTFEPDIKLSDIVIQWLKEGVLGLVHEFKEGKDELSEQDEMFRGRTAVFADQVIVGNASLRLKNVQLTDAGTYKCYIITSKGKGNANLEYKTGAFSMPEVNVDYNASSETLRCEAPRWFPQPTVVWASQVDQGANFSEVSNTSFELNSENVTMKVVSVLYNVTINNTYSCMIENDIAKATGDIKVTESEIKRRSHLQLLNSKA
Description: as §1, §2

[8] = target: T7, B7-DC protein, Sino Biological 10292-H08H-B (UniProt Q9BQ51 20-219); experiment: as above; parameters: concentration or dose not given beside the values
T7 construct: Bought protein
T7 sequence (looked up): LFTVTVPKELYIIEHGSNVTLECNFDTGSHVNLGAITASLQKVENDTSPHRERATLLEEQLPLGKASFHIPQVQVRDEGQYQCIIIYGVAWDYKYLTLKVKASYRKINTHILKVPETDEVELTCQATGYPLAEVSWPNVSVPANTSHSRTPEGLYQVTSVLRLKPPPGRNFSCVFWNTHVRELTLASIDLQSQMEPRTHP
Description: as §1, §2

[9] = target: T2, human PD-L1 (full-length, on cells); experiment: FACS competition, human PD-L1-CHO cells, competitor biotin-labeled CD80 1 µg/mL
[10] = target: T2, human PD-L1 (full-length, on cells); experiment: FACS competition, human PD-L1-CHO cells, competitor biotin-labeled PD-1-Fc 1 µg/mL

T2 sequence (Q9NZQ7 19-290): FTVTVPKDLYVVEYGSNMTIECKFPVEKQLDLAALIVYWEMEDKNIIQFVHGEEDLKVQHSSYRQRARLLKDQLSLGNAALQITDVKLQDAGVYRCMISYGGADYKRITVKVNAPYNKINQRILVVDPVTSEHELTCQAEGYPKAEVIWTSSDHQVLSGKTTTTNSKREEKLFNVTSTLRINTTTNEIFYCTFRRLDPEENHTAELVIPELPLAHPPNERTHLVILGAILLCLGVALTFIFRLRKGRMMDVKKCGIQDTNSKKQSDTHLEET
T1 sequence (Q9EP73 19-290): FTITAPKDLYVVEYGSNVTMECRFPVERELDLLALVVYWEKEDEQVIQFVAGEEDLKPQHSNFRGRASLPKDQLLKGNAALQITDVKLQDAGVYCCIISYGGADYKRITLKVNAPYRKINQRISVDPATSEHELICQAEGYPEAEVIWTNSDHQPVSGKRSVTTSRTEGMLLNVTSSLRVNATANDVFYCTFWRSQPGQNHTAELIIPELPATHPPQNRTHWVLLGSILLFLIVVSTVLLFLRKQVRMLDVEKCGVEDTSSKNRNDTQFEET

B1: NB22D-21 chimeric VHH-Fc antibody (Fc fusion)
chain: EVQVQESGGGLVQAGGSLRLSCAHSRTDSNINGMHWYRQAPGKQRDWVGTIFIDGNTIVTDSVKGRFTISRDNAKNTLYLQMNTLKPEDTAVYFCAADVSGYGRAWGQGTQVTVSS
notes: also called parental antibody NB22D-21; parent molecule; not shown: human IgG1 Fc fragment, its N-terminus linked to the C-terminus of the VHH
- binding result [1]: binds
- EC50 [2]: 0.39 µg/mL
- EC50 [3]: 0.25 µg/mL
- EC50 (read off the curve) [4]: ~0.1 µg/mL
- binding result [5]: no binding (tested: 10.00 (no unit on the sheet))
- binding result [6]: no binding (tested: 10.00 (no unit on the sheet))
- binding result [7]: no binding (tested: 10.00 (no unit on the sheet))
- binding result [8]: no binding (tested: 10.00 (no unit on the sheet))
- IC50 [9]: 0.708 µg/mL
- IC50 [10]: 0.41 µg/mL
